What was measured:
[1] = target: green fluorescent protein (GFP), recombinant (Aequorea victoria) [GFP: P42212]; assay: SPR, GFP immobilised; reference LaG-16 or LaG-2 alone
[2] = target: green fluorescent protein (GFP), recombinant (Aequorea victoria) [GFP: P42212]; assay: SPR, GFP immobilised
[3] = target: GFP-tagged Nup84 (budding yeast) (budding yeast) (UniProt P52891); assay: time course of yeast Nup84-GFP isolation on magnetic beads

Substance: LaG16-LaG2 fusion with a flexible glycine-rich linker
- fold lower Kd than either LaG alone [1]: 20 fold
- Kd [2]: 0.036 nM
- percent of maximum yield after 5 minutes [3]: 80%
- percent of maximum yield after 10 minutes [3]: 90%
